Assay results published in patent publication US20180022780A1 (Bayer, published 2018).
Each block holds one binder with its values, some of them ahead of it. Bridge positions count the residues as written; N and C are the ends. Square brackets hold non-standard residues; d marks the D form. Ends that are not written are not given here. Orn = NCCC[C@H](N)C(=O)O

Key:
[1] = target: human adrenomedullin-receptor (human, UniProt Q16602 23-461); assay: cell-based or functional assay
[2] = target: CLR fused to EYFP with RAMP2 fused to ECFP; assay: cell-based or functional assay
CLR fused to EYFP with RAMP2 fused to ECFP, sequence (Q16602 whole entry, chain 1 of 2, the tested form may be a part): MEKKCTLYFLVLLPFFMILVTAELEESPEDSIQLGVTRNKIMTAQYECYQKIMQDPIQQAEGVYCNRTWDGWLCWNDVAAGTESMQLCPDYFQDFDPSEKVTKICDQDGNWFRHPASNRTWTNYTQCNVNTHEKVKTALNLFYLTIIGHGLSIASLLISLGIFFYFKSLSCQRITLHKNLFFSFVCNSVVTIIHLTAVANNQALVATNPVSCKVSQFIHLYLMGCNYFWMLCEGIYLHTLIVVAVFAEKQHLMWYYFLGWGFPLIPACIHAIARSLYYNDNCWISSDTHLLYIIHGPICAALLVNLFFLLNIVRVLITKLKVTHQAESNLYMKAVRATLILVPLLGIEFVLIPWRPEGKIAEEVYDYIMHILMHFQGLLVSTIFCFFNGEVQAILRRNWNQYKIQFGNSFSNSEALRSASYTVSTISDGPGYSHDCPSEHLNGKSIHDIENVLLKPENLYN
CLR fused to EYFP with RAMP2 fused to ECFP, sequence (O60895 whole entry, chain 2 of 2, further chain, the tested form may be a part): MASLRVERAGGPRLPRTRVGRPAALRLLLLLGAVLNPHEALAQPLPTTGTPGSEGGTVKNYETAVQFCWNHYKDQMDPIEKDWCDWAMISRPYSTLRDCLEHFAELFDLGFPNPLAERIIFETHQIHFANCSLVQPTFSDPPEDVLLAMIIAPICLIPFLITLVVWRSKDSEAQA

human adrenomedullin-receptor, sequence (Q16602 23-461): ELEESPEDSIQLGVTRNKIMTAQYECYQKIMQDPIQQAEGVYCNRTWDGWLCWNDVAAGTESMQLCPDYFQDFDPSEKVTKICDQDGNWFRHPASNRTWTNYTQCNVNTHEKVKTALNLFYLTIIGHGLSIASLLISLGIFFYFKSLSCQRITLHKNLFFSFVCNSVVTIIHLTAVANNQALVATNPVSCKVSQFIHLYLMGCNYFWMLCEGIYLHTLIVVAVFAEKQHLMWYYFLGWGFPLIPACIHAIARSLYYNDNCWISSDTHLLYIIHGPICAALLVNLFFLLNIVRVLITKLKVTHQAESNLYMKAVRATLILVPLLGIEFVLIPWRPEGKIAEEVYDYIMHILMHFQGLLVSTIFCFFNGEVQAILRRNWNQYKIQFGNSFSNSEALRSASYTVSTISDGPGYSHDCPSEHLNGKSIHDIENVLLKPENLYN

EC50 [nM], aequorin luminescence of CHO adrenomedullin-receptor reporter cells [1]: > 1000 nM
EC50 [nM], cAMP assay (CRE-luciferase luminescence, HEK293 cells) [2]: > 1000 nM
B1: [G^14, (Orn^16, D^21)lac]ADM(14-52) (peptide)
peptide: GG[Orn]RFGTDTVQKLAHQIYQFTDKDKDNVAPRSKISPQGY-NH2
modifications: lactam 3-8; N-terminus assumed
SMILES: CC[C@H](C)[C@H](NC(=O)[C@H](CCC(N)=O)NC(=O)[C@H](Cc1c[nH]cn1)NC(=O)[C@H](C)NC(=O)[C@H](CC(C)C)NC(=O)[C@H](CCCCN)NC(=O)[C@H](CCC(N)=O)NC(=O)[C@@H](NC(=O)[C@@H](NC(=O)[C@@H]1CC(=O)NCCC[C@H](NC(=O)CNC(=O)CN)C(=O)N[C@@H](CCCNC(=N)N)C(=O)N[C@@H](Cc2ccccc2)C(=O)NCC(=O)N[C@@H]([C@@H](C)O)C(=O)N1)[C@@H](C)O)C(C)C)C(=O)N[C@@H](Cc1ccc(O)cc1)C(=O)N[C@@H](CCC(N)=O)C(=O)N[C@@H](Cc1ccccc1)C(=O)N[C@H](C(=O)N[C@@H](CC(=O)O)C(=O)N[C@@H](CCCCN)C(=O)N[C@@H](CC(=O)O)C(=O)N[C@@H](CCCCN)C(=O)N[C@@H](CC(=O)O)C(=O)N[C@@H](CC(N)=O)C(=O)N[C@H](C(=O)N[C@@H](C)C(=O)N1CCC[C@H]1C(=O)N[C@@H](CCCNC(=N)N)C(=O)N[C@@H](CO)C(=O)N[C@@H](CCCCN)C(=O)N[C@H](C(=O)N[C@@H](CO)C(=O)N1CCC[C@H]1C(=O)N[C@@H](CCC(N)=O)C(=O)NCC(=O)N[C@@H](Cc1ccc(O)cc1)C(N)=O)[C@@H](C)CC)C(C)C)[C@@H](C)O

EC50 [nM], aequorin luminescence of CHO adrenomedullin-receptor reporter cells [1]: 17.3 nM
EC50 [nM], cAMP assay (CRE-luciferase luminescence, HEK293 cells) [2]: 20 nM
B2: [G^14, (D^16, Orn^21)lac]ADM(14-52) (peptide)
peptide: GGDRFGT[Orn]TVQKLAHQIYQFTDKDKDNVAPRSKISPQGY-NH2
modifications: lactam 3-8
